# Reference: doi:10.1101/2020.12.12.421834 (bioRxiv, 2020)
# T1: PD1 N-terminal loop-GST fusion protein (Homo sapiens)
# T1 chain: LDSPDRPWNP
# Tests used:
# [1] = target: T1, PD1 N-terminal loop-GST fusion protein; assay: ELISA
# [2] = target: full-length human PD1 expressed on the surface of NS1 cells (human, UniProt Q15116); assay: flow cytometry on cells
# [3] = target: T2, PD1 extracellular domain, without Fc fusion (Homo sapiens, UniProt Q15116); assay: ELISA
# [4] = target: T2, PD1 extracellular domain, without Fc …; assay: SPR
# T2 sequence (Q15116 25-170): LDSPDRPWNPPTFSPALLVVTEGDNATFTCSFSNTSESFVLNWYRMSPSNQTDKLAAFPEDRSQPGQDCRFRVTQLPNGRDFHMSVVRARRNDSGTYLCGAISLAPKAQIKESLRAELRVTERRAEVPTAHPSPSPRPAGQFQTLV
# full-length human PD1 expressed on the surface of NS1 cells, sequence (Q15116 25-288): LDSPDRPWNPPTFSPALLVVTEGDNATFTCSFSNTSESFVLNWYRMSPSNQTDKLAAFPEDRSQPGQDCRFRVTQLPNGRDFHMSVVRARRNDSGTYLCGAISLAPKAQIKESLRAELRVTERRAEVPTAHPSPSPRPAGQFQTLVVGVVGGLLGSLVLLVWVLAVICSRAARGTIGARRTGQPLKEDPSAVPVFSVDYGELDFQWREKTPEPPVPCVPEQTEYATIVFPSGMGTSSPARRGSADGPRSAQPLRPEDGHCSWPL
binder,measurement,setting,value
"M2-4 anti-PD1 antibody (human IgG4/kappa, C-terminal 6xHis) (antibody, V domains shown) VH: QVQLVESGGDVVQPGGSLRLSCAASGVAFRNYGMHWVRQAPGKGLEWVAIIWYDGSNKYYADSVKGRFTISRDNSKNMLYLQMNSLRAEDTAMYYCARLSIGTTHYFDTDDYWGQGTSVTVSS VL: EIVLTQSPATLSLSPGERATLSCRASQSVSSYLAWYQQKVGQAPRLIIFDASNRATGIPARFSGSGSGTDFTLTITSLDPEDFAVYYCQQRSAWPLTFGGGTKVEIR",binding result,[1],binds
same,binding result,[2],binds
"M1-1 anti-PD1 antibody (human IgG4/kappa, C-terminal 6xHis) (antibody, V domains shown) VH: QVQLVESGGDVVQPGGSLRLSCAASGVAFRDYGMHWVRQAPGKGLEWVAVIWYDGSKKYYGDSVKGRFTVSRDNSKNMLYLEMNGLKAEDTAMYYCARNDDYWGQGTLVTVSS VL: EIVLTQSPATLSLSPGERATLSCRASQSVSNSLSWYQQNPGQSPRLIIYDTSKRATGIPARFSGSGSGTDFTLTINNLETEDFAVYYCHQRSDWPLTFGGGTKVEIK",binding result,[1],binds
same,binding result,[2],binds
"M1-7 anti-PD1 antibody (human IgG4/kappa, C-terminal 6xHis) (antibody, V domains shown) VH: QLQLVESGGDVVQPGGSLRLSCAASGVVFSDFGLEWVRQAPGKGLEWLAVIWYDGSRKHYADSVKGRFTISRDNSKNMLYLQMNSLRVEDTAMYYCARCHSKEDYWGQGTLVTVSS VL: EIEVTQSPATLSLSPGERATLSCRASQSIDTDLAWFQQRPGQTPRLIIYDASKRATGIPARFSGGGSGTDFTLTISSLEPEDFAVYYCQQRTTWPLTFGGGTKVEIK",binding result,[2],binds
"M1-2 anti-PD1 antibody (human IgG4/kappa, C-terminal 6xHis) (antibody, V domains shown) VH: QVQLVESGGDVVQPGGSLRLSCAASGVAFSDYGMEWVRQAPGKGLEWLAVIWYDGSRKHYADSVKGRFTISRDNSKNILYLQMNSLRAEDTAMYYCARCHSKDDYWGQGTLVTVSS VL: EIVLTQFPATLSLSPGERATLSCRTSQNIDSDLAWFQQKPGQAPRLIIYDASNRATGIPARFSGGGSGTDFTLTITSLEPEDFAVYYCQQRTTWPLTFGGGTKVEIK",binding result,[1],no binding
same,binding result,[2],binds
"M1-6 anti-PD1 antibody (human IgG4/kappa, C-terminal 6xHis) (antibody, V domains shown) VH: QVQLVESGGDVVQSGGSLRLSCAVSGVVFSDYGFEWVRQAPGKGLEWVAVIWYDGSRKHYADSVQGRFTISRDNFRNMLYLQMTGLRVEDTAKYYCTRSHSHEDYWGQGTLVTVSS VL: EIVLTQSPATLSLSPGERATLSCGASQNIDNSLAWFQQKPGQAPRLIIYDASKRATGIPARFSGSGSGTDFTLTISTLEPEDFAVYYCQQRDHWPLNFGGGTKVEVK",binding result,[3],binds
same,binding result,[1],binds
same,binding result,[2],binds
"M1-3 anti-PD1 antibody (human IgG4/kappa, C-terminal 6xHis) (antibody, V domains shown) VH: QEWLVESGGDVVQPGGSLRLSCATSKVTFNDFGIHWVRQAPGKGLEWVAIIWYDGSRNHYADSVRGRFTLSRDNSKNMVHLHMSSLRTEDTAMYYCARGIHSNDDYWGQGTMVTVSS VL: EIVLTQSPATLSLSPGERATLSCRTSQSVSSDLAWFQQKPGQAPRLFIFDASKRVNGIPARFSGSGSGTDFTLTISSLEPEDFAVYYCQQRTDWPLTFGGGSRVEIK",binding result,[3],binds
same,binding result,[1],binds
same,binding result,[2],binds
"M1-5 anti-PD1 antibody (human IgG4/kappa, C-terminal 6xHis) (antibody, V domains shown) VH: QVQLVESGGDVVQPGGSLRLSCTVSGAVFRDLGMEWVRQAPGKGLEWLAVIWYDGGRKHYADSVKGRFTISRDNSRNMLFLQMNGLRVDDTAMYYCTRSHSTDDYWGQGTLVTVSS VL: EIVLTQSPATLSVSPGERATLSCRASQSISSDLAWFQQKPGQAPRLIIHGASKRATGIPARFSGSGSGTDFTLTISSLEPEDFAVYYCQQRDSWPLNFGGGTKVEIK",binding result,[3],binds
same,binding result,[1],binds
same,binding result,[2],binds
"M1-5 anti-PD1 antibody (human IgG4/k, without C-terminal His tag) (antibody, V domains shown) VH: QVQLVESGGDVVQPGGSLRLSCTVSGAVFRDLGMEWVRQAPGKGLEWLAVIWYDGGRKHYADSVKGRFTISRDNSRNMLFLQMNGLRVDDTAMYYCTRSHSTDDYWGQGTLVTVSS VL: EIVLTQSPATLSVSPGERATLSCRASQSISSDLAWFQQKPGQAPRLIIHGASKRATGIPARFSGSGSGTDFTLTISSLEPEDFAVYYCQQRDSWPLNFGGGTKVEIK",binding result,[4],binds
"17D8 anti-PD1 antibody (human IgG4/kappa, C-terminal 6xHis) (antibody, V domains shown) VH: QVQLVESGGDVVQPGGSLRLSCAASGVAFSNYGMHWVRQAPGKGLEWVAVIWYDGSNKYYADSVKGRFTISRDNSKNMLYLQMNSLRAEDTAMYYCARNDDYWGQGTLVTVSS VL: EIVLTQSPATLSLSPGERATLSCRASQSVSSYLAWYQQKPGQAPRLIIYDASNRATGIPARFSGSGSGTDFTLTISSLEPEDFAVYYCQQRSNWPLTFGGGTKVEIK",binding result,[2],binds
"M2-5 anti-PD1 antibody (human IgG4/kappa, C-terminal 6xHis) (antibody, V domains shown) VH: QVQLVESGGDVVQPGGSLRLSCAASGVVFSDYGLYWVRQAPGKGLEWVALIWYDGSKKFYADSVKGRFSISRDNSKNMLYLQMNNLRADDSAIYYCSRGIRQGPWFAYWGQGTRVTVSP VL: EIVLTQSPATLSLSPGERATLSCRASQSISSDLTWFQQKPGQAPRLIIYDASNRATGIPARFSGSGSGTDFTLTISSLEPEDFVVYYCLQRSDWPLTFGGGTKVEIK",binding result,[3],binds
same,binding result,[1],binds
same,binding result,[2],binds
"17D8 anti-PD1 antibody (human IgG4/k, without C-terminal His tag) (antibody, V domains shown) VH: QVQLVESGGDVVQPGGSLRLSCAASGVAFSNYGMHWVRQAPGKGLEWVAVIWYDGSNKYYADSVKGRFTISRDNSKNMLYLQMNSLRAEDTAMYYCARNDDYWGQGTLVTVSS VL: EIVLTQSPATLSLSPGERATLSCRASQSVSSYLAWYQQKPGQAPRLIIYDASNRATGIPARFSGSGSGTDFTLTISSLEPEDFAVYYCQQRSNWPLTFGGGTKVEIK",binding result,[4],binds
"M2-3 anti-PD1 antibody (human IgG4/kappa, C-terminal 6xHis) (antibody, V domains shown) VH: QGHLVESGGDVVLPGGSLRLSCTESGVDLSDFGIHWVRQTPGKGLEWVALIWYDGSKKFYADSVKDRFTISRDNSKNMVYLEMISLRVEDTAMYFCARGIRRGPWFTYWGPGTLVTVST VL: EIVLTQSPVILSLSPGERATLSCRASQSISSDLAWFQQTPGQAPRLIIYDASNRATGIPARFSGSGSGTDFTLTISSLEPEDFAVYYCQQRSNWPLTFGGGTKVEIK",binding result,[3],binds
same,binding result,[1],binds
same,binding result,[2],binds
"M1-4 anti-PD1 antibody (human IgG4/kappa, C-terminal 6xHis) (antibody, V domains shown) VH: QVQLVESGGDVVQPGGSLRLSCAVSGVTFGDFGFEWVRQAPGKGLEWVAVIWYDGSRKHYAESVRGRFTISRDNSRNMMYLEMTGLRVEDTAKYYCTRSHSHEDYWGQGTLVTVSS VL: EIVLTQSPATLSLSPGERATLSCRASQSISNYLAWFQQKSGQAPRLIIHDAFKRAAGIPTRFSGSGSGTDFTLTISSLEPEDFAVYYCQQRDNWPLNFGGGTKVEIK",binding result,[3],binds
same,binding result,[1],binds
same,binding result,[2],binds
"M2-1 anti-PD1 antibody (human IgG4/k, without C-terminal His tag) (antibody, V domains shown) VH: QVQLVESGGDVVQPGGSLRLSCSASGLVFRDYGMNWVRQAPGKGLEWVGLIWYDGTKKYYSDFVKGRFTISRDNSKNMLYLQMNNLRAEDTAIYYCARFLIGATRRGNAMDYWGQGTSVIVSS VL: EVVLTQSPATLSLSPGERATLSCRASQSIDSDLAWSQQKTGQPPRLIIYDASNRATGIPARFSGSGSGTDFTLTISSLEPEDFAVYYCQQRSDWPLTFGGGTKVEIR",binding result,[4],binds
"M2-2 anti-PD1 antibody (human IgG4/kappa, C-terminal 6xHis) (antibody, V domains shown) VH: QVQLVESGGDVVQPGGSLRLSCSASGLVISDYGMNWVRQAPGKGLEWVGLIWYDGSKKYYSDFVKGRFTISRDNSKNILYLQMNNLRAEDTAMYYCARFLIGATRRGNAMDYWGQGTSVTVSS VL: EVVLTQSPATLSLSPGERATLSCRASQSIDSDLAWSQQKPGQPPRLIIYDASNRATGIPARFSGSGSGTDFTLTISSLEPEDFAVYYCQQRSDWPLTFGGGTKVEIR",binding result,[3],binds
same,binding result,[1],binds
same,binding result,[2],binds
"M2-1 anti-PD1 antibody (human IgG4/kappa, C-terminal 6xHis) (antibody, V domains shown) VH: QVQLVESGGDVVQPGGSLRLSCSASGLVFRDYGMNWVRQAPGKGLEWVGLIWYDGTKKYYSDFVKGRFTISRDNSKNMLYLQMNNLRAEDTAIYYCARFLIGATRRGNAMDYWGQGTSVIVSS VL: EVVLTQSPATLSLSPGERATLSCRASQSIDSDLAWSQQKTGQPPRLIIYDASNRATGIPARFSGSGSGTDFTLTISSLEPEDFAVYYCQQRSDWPLTFGGGTKVEIR",binding result,[3],binds
same,binding result,[1],binds
same,binding result,[2],binds
